Experimental data from patent publication US20160272683A1 (Novo Nordisk, published 2016).
Changes are numbered by the printed parent chain. Each block holds one binder with its values, some of them ahead of it. Numbered stars: 1 amine (or outer) side, 2 acyl side, 3 side chain; on linkers, the order of the positions; unused ones are H or OH. Ends that are not written are not given here. * marks the point of attachment. C20 diacid = O=C(O)CCCCCCCCCCCCCCCCCCC(=O)*; C18 diacid = O=C(O)CCCCCCCCCCCCCCCCC(=O)*; γGlu = O=C(O)[C@H](CCC(=O)[*:2])N[*:1]

Columns and labels:
[1] = target: T1, human amylin 3(a) receptor (human calcitonin receptor co-expressed with RAMP-3) (human, UniProt P30988 25-474; O60896 24-148, limits assumed); assay: cell-based or functional assay
T1 sequence (looked up) 1: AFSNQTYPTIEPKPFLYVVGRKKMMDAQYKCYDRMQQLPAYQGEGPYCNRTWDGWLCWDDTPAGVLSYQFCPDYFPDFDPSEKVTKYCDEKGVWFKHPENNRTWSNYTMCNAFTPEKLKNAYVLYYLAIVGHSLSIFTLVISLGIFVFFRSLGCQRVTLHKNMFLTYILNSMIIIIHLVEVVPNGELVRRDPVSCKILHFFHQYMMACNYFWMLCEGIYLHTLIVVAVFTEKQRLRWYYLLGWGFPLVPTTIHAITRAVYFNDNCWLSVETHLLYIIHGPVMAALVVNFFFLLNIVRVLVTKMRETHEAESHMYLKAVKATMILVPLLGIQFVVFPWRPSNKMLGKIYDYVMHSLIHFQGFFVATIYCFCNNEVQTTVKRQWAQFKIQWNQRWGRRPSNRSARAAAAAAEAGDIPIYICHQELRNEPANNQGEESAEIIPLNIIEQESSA
T1 sequence (looked up) 2: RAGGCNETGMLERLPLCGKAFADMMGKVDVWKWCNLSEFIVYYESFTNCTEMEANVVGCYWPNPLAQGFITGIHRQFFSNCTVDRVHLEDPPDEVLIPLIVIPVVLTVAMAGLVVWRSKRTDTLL

[2] = target: T2, human calcitonin receptor (human, UniProt P30988 25-474); assay: cell-based or functional assay
T2 sequence (looked up): T1 sequence (looked up) 1

- hAmylin-R funct. EC50 (pM) [1]: 46 pM
- hCTR funct. EC50 (pM) [2]: 9 pM
B3: [des1, 6T, 9V, 30T, 31G, 32T]mimylin (peptide)
peptide: ASELTTAVLGRLSAELHELATLPRTETGTGTP-NH2

- hAmylin-R funct. EC50 (pM) [1]: 3 pM
- hCTR funct. EC50 (pM) [2]: 1 pM
B6: mimylin (peptide)
peptide: EASELSTAALGRLSAELHELATLPRTETGPESP-NH2

- hAmylin-R funct. EC50 (pM) [1]: 7 pM
- hCTR funct. EC50 (pM) [2]: 2 pM
B12: [des1, 5V, 9V, 30S, 31G]mimylin (peptide)
peptide: ASEVSTAVLGRLSAELHELATLPRTETGSGSP-NH2

- hAmylin-R funct. EC50 (pM) [1]: 14 pM
- hCTR funct. EC50 (pM) [2]: 3 pM
B14: [des1, 12H, 30S, 31G]mimylin (peptide)
peptide: ASELSTAALGHLSAELHELATLPRTETGSGSP-NH2

- hAmylin-R funct. EC50 (pM) [1]: 629 pM
- hCTR funct. EC50 (pM) [2]: 103 pM
B15: [des1, 6T, 9V, 14E, 21T, 30T, 31G, 32T]mimylin (peptide)
peptide: ASELTTAVLGRLEAELHELTTLPRTETGTGTP-NH2

More lines, now with the values behind:

B1: [N-terminal(C18 diacid), 8L]mimylin (peptide)
peptide: {C18 diacid}-EASELSTLALGRLSAELHELATLPRTETGPESP-NH2
SMILES: CC(C)C[C@H](NC(=O)[C@H](C)NC(=O)[C@H](CC(C)C)NC(=O)[C@@H](NC(=O)[C@H](CO)NC(=O)[C@H](CC(C)C)NC(=O)[C@H](CCC(=O)O)NC(=O)[C@H](CO)NC(=O)[C@H](C)NC(=O)[C@H](CCC(=O)O)NC(=O)CCCCCCCCCCCCCCCCC(=O)O)[C@@H](C)O)C(=O)NCC(=O)N[C@@H](CCCNC(=N)N)C(=O)N[C@@H](CC(C)C)C(=O)N[C@@H](CO)C(=O)N[C@@H](C)C(=O)N[C@@H](CCC(=O)O)C(=O)N[C@@H](CC(C)C)C(=O)N[C@@H](Cc1c[nH]cn1)C(=O)N[C@@H](CCC(=O)O)C(=O)N[C@@H](CC(C)C)C(=O)N[C@@H](C)C(=O)N[C@H](C(=O)N[C@@H](CC(C)C)C(=O)N1CCC[C@H]1C(=O)N[C@@H](CCCNC(=N)N)C(=O)N[C@H](C(=O)N[C@@H](CCC(=O)O)C(=O)N[C@H](C(=O)NCC(=O)N1CCC[C@H]1C(=O)N[C@@H](CCC(=O)O)C(=O)N[C@@H](CO)C(=O)N1CCC[C@H]1C(N)=O)[C@@H](C)O)[C@@H](C)O)[C@@H](C)O
- hAmylin-R funct. EC50 (pM) [1]: 9 pM
- hCTR funct. EC50 (pM) [2]: 7 pM

B2: [N-terminal(C18 diacid), 18A]mimylin (peptide)
peptide: {C18 diacid}-EASELSTAALGRLSAELAELATLPRTETGPESP-NH2
SMILES: CC(C)C[C@H](NC(=O)[C@H](C)NC(=O)[C@H](C)NC(=O)[C@@H](NC(=O)[C@H](CO)NC(=O)[C@H](CC(C)C)NC(=O)[C@H](CCC(=O)O)NC(=O)[C@H](CO)NC(=O)[C@H](C)NC(=O)[C@H](CCC(=O)O)NC(=O)CCCCCCCCCCCCCCCCC(=O)O)[C@@H](C)O)C(=O)NCC(=O)N[C@@H](CCCNC(=N)N)C(=O)N[C@@H](CC(C)C)C(=O)N[C@@H](CO)C(=O)N[C@@H](C)C(=O)N[C@@H](CCC(=O)O)C(=O)N[C@@H](CC(C)C)C(=O)N[C@@H](C)C(=O)N[C@@H](CCC(=O)O)C(=O)N[C@@H](CC(C)C)C(=O)N[C@@H](C)C(=O)N[C@H](C(=O)N[C@@H](CC(C)C)C(=O)N1CCC[C@H]1C(=O)N[C@@H](CCCNC(=N)N)C(=O)N[C@H](C(=O)N[C@@H](CCC(=O)O)C(=O)N[C@H](C(=O)NCC(=O)N1CCC[C@H]1C(=O)N[C@@H](CCC(=O)O)C(=O)N[C@@H](CO)C(=O)N1CCC[C@H]1C(N)=O)[C@@H](C)O)[C@@H](C)O)[C@@H](C)O
- hAmylin-R funct. EC50 (pM) [1]: 4 pM
- hCTR funct. EC50 (pM) [2]: 3 pM

B4: [N-terminal(C20 diacid-gGlu), des1, 4Q, 9V, 15Q, 16R, 19R, 21Q, 23Y, 27Q, 30S, 31Q, 32T, 33Y]mimylin (peptide)
peptide: {C20 diacid-γGlu}-ASQLSTAVLGRLSQRLHRLQTYPRTQTGSQTY-NH2
SMILES: CC(C)C[C@H](NC(=O)[C@H](CCCNC(=N)N)NC(=O)CNC(=O)[C@H](CC(C)C)NC(=O)[C@@H](NC(=O)[C@H](C)NC(=O)[C@@H](NC(=O)[C@H](CO)NC(=O)[C@H](CC(C)C)NC(=O)[C@H](CCC(N)=O)NC(=O)[C@H](CO)NC(=O)[C@H](C)NC(=O)CC[C@H](NC(=O)CCCCCCCCCCCCCCCCCCC(=O)O)C(=O)O)[C@@H](C)O)C(C)C)C(=O)N[C@@H](CO)C(=O)N[C@@H](CCC(N)=O)C(=O)N[C@@H](CCCNC(=N)N)C(=O)N[C@@H](CC(C)C)C(=O)N[C@@H](Cc1c[nH]cn1)C(=O)N[C@@H](CCCNC(=N)N)C(=O)N[C@@H](CC(C)C)C(=O)N[C@@H](CCC(N)=O)C(=O)N[C@H](C(=O)N[C@@H](Cc1ccc(O)cc1)C(=O)N1CCC[C@H]1C(=O)N[C@@H](CCCNC(=N)N)C(=O)N[C@H](C(=O)N[C@@H](CCC(N)=O)C(=O)N[C@H](C(=O)NCC(=O)N[C@@H](CO)C(=O)N[C@@H](CCC(N)=O)C(=O)N[C@H](C(=O)N[C@@H](Cc1ccc(O)cc1)C(N)=O)[C@@H](C)O)[C@@H](C)O)[C@@H](C)O)[C@@H](C)O
- hAmylin-R funct. EC50 (pM) [1]: 16 pM
- hCTR funct. EC50 (pM) [2]: 15 pM

B5: [C-terminal(-)]mimylin (peptide)
peptide: EASELSTAALGRLSAELHELATLPRTETGPESP-OH
- hAmylin-R funct. EC50 (pM) [1]: 23600 pM
- hCTR funct. EC50 (pM) [2]: 840 pM

B7: [N-terminal(C18 diacid), C-terminal(-)]mimylin (peptide)
peptide: {C18 diacid}-EASELSTAALGRLSAELHELATLPRTETGPESP-OH
- hAmylin-R funct. EC50 (pM) [1]: 481 pM
- hCTR funct. EC50 (pM) [2]: 45 pM

B8: [des1, 4G, 9T, 15Q, 21Q, 23Y, 30S, 31G, 32T, 33Y]mimylin (peptide)
peptide: ASGLSTATLGRLSQELHELQTYPRTETGSGTY
modifications: ends and bridges not checked
- hAmylin-R funct. EC50 (pM) [1]: 5 pM
- hCTR funct. EC50 (pM) [2]: 4 pM

B9: [des1, 4G, 9V, 15Q, 21Q, 23Y, 30S, 31G, 32T, 33Y]mimylin (peptide)
peptide: B8 peptide with T8V
modifications: ends and bridges not checked
- hAmylin-R funct. EC50 (pM) [1]: 8 pM
- hCTR funct. EC50 (pM) [2]: 4 pM

B10: [N-terminal(C20 diacid-gGlu), des1, 2L, 4Q, 8L, 9V, 15Q, 16R, 19R, 21Q, 23Y, 27Q, 30S, 31Q, 32T, 33Y]mimylin (peptide)
peptide: {C20 diacid-γGlu}-LSQLSTLVLGRLSQRLHRLQTYPRTQTGSQTY-NH2
SMILES: CC(C)C[C@H](NC(=O)CC[C@H](NC(=O)CCCCCCCCCCCCCCCCCCC(=O)O)C(=O)O)C(=O)N[C@@H](CO)C(=O)N[C@@H](CCC(N)=O)C(=O)N[C@@H](CC(C)C)C(=O)N[C@@H](CO)C(=O)N[C@H](C(=O)N[C@@H](CC(C)C)C(=O)N[C@H](C(=O)N[C@@H](CC(C)C)C(=O)NCC(=O)N[C@@H](CCCNC(=N)N)C(=O)N[C@@H](CC(C)C)C(=O)N[C@@H](CO)C(=O)N[C@@H](CCC(N)=O)C(=O)N[C@@H](CCCNC(=N)N)C(=O)N[C@@H](CC(C)C)C(=O)N[C@@H](Cc1c[nH]cn1)C(=O)N[C@@H](CCCNC(=N)N)C(=O)N[C@@H](CC(C)C)C(=O)N[C@@H](CCC(N)=O)C(=O)N[C@H](C(=O)N[C@@H](Cc1ccc(O)cc1)C(=O)N1CCC[C@H]1C(=O)N[C@@H](CCCNC(=N)N)C(=O)N[C@H](C(=O)N[C@@H](CCC(N)=O)C(=O)N[C@H](C(=O)NCC(=O)N[C@@H](CO)C(=O)N[C@@H](CCC(N)=O)C(=O)N[C@H](C(=O)N[C@@H](Cc1ccc(O)cc1)C(N)=O)[C@@H](C)O)[C@@H](C)O)[C@@H](C)O)[C@@H](C)O)C(C)C)[C@@H](C)O
- hAmylin-R funct. EC50 (pM) [1]: 10 pM
- hCTR funct. EC50 (pM) [2]: 12 pM

B11: [N-terminal(C18 diacid), 9L]mimylin (peptide)
peptide: {C18 diacid}-EASELSTALLGRLSAELHELATLPRTETGPESP-NH2
SMILES: CC(C)C[C@H](NC(=O)[C@H](C)NC(=O)[C@@H](NC(=O)[C@H](CO)NC(=O)[C@H](CC(C)C)NC(=O)[C@H](CCC(=O)O)NC(=O)[C@H](CO)NC(=O)[C@H](C)NC(=O)[C@H](CCC(=O)O)NC(=O)CCCCCCCCCCCCCCCCC(=O)O)[C@@H](C)O)C(=O)N[C@@H](CC(C)C)C(=O)NCC(=O)N[C@@H](CCCNC(=N)N)C(=O)N[C@@H](CC(C)C)C(=O)N[C@@H](CO)C(=O)N[C@@H](C)C(=O)N[C@@H](CCC(=O)O)C(=O)N[C@@H](CC(C)C)C(=O)N[C@@H](Cc1c[nH]cn1)C(=O)N[C@@H](CCC(=O)O)C(=O)N[C@@H](CC(C)C)C(=O)N[C@@H](C)C(=O)N[C@H](C(=O)N[C@@H](CC(C)C)C(=O)N1CCC[C@H]1C(=O)N[C@@H](CCCNC(=N)N)C(=O)N[C@H](C(=O)N[C@@H](CCC(=O)O)C(=O)N[C@H](C(=O)NCC(=O)N1CCC[C@H]1C(=O)N[C@@H](CCC(=O)O)C(=O)N[C@@H](CO)C(=O)N1CCC[C@H]1C(N)=O)[C@@H](C)O)[C@@H](C)O)[C@@H](C)O
- hAmylin-R funct. EC50 (pM) [1]: 28 pM
- hCTR funct. EC50 (pM) [2]: 13 pM

B13: [30S, 31G]mimylin (peptide)
peptide: EASELSTAALGRLSAELHELATLPRTETGSGSP-NH2
- hAmylin-R funct. EC50 (pM) [1]: 5 pM
- hCTR funct. EC50 (pM) [2]: 2 pM

B16: [des1, 2L, 4G, 9V, 15Q, 21Q, 23Y, 30S, 31Q, 32T, 33Y]mimylin (peptide)
peptide: LSGLSTAVLGRLSQELHELQTYPRTETGSQTY-NH2
- hAmylin-R funct. EC50 (pM) [1]: 11 pM
- hCTR funct. EC50 (pM) [2]: 6 pM
